In paper PMC5686756, “IKKγ-Mimetic Peptides Block the Resistance to Apoptosis Associated with Kaposi's Sarcoma-Associated Herpesvirus Infection” (Journal of Virology, 2017):
Positions of bridges follow the written chain, without caps; N, C: chain ends. Non-standard residues stand in square brackets, D forms with d. No end group written: not given here. S5 = C=CCCC[C@](C)(N)C(=O)O

B1: IKKγ fragment encompassing residues 150 to 272 (domain or fragment, UniProt Q9Y6K9 150-272, looked up)
chain: LGELQESQSRLEAATKECQALEGRARAASEQARQLESEREALQQQHSVQVDQLRMQGQSVEAALRMERQAASEEKRKLAQLQVAYHQLFQEYDNHIKSSVVGSERKRGMQLEDLKQQLQQAEE
notes: also called IKKγ(150–272); NEMO

Tests used:
[1] = target: T1, GB1-tagged ks-vFLIP (residues 1 to 188) (Kaposi's sarcoma-associated herpesvirus …, UniProt Q76RF1 1-188); assay: ITC; competition: GB1–ks-vFLIP first incubated with 20 μM spIKKγ and 4% DMSO, then titrated with IKKγ(150–272); deionized water, 25°C; apparent; settings: both partners purified
T1 construct: KSHV vFLIP (ks-vFLIP), residues 1 to 188, cloned into GB1-pBR22b (modified pET22b); GB1 is the streptococcal protein G immunoglobulin domain fusion tag; also called GB1–ks-vFLIP; GB1-vFLIP; source: E. coli BL21(DE3), purified (His-trap, Superdex S75 size exclusion); not shown: GB1, N-terminal, kept

[2] = target: T1, GB1-tagged ks-vFLIP (residues 1 to 188); assay: ITC; IKKγ(150–272) (~85-100 μM, syringe) titrated into GB1-vFLIP (~8-10 μM, cell); deionized water, 4% DMSO, 25°C; one-site model; apparent; settings: both partners purified

Row | Binder | apparent Kd in the presence of spIKKγ (20 μM) [1] | Kd [2] | Ki [1]
1 | B1 | 30000 nM | 380 nM | 
2 | LQVAYH[S5]LFQ[S5]YDNHIKSSC (staple 7-11) [spIKKγ, conformationally constrained stapled 20-mer peptide of the IKKγ minimal interacting motif (L] |  |  | 257 nM
